B1: His-tagged hRpn10^196–306 (domain or fragment, human, UniProt P55036 196-306, looked up)
chain: MLGLGASDFEFGVDPSADPELALALRVSMEEQRQRQEEEARRAAAASAAEAGIATTGTEDSDDALLKMTISQQEFGRTGLPDLSSMTEEEQIAYAMQMSLQGAEFGQAESA

What was measured:
M1 diubiquitin = M1 diubiquitin (UniProt P0CG48 1-76; P0CG48 1-76, M1 linkage between the two ubiquitins); experiment: pull-down
[1] = biological target: B1; experiment: NMR structure
[2] = biological target: B1; experiment: NMR titration

Row | Binder | binding result (M1 diubiquitin) | stoichiometry N [1] | KD of the secondary binding site (UIM-2) [2] [µM]
1 | B1 | binds | – | –
2 | UBQLN2 UBL domain (domain or fragment, human) APAEPKIIKVTVKTPKEKEEFAVPENSSVQQFKEAISKRFKSQTDQLVLIFAGKILKDQDTLIQHGIHDGLTVHLVIK | – | 2 | 24.8 ± 3.1

Source: paper PMC6389388 (Journal of molecular biology, 2019)
